Drawing on patent publication US6001988, this text covers Kd and IC50 for 17 sequences.

Series [1] addresses T1, L-selectin (LS-Rg) (Homo sapiens) (UniProt P14151).
T1 sequence: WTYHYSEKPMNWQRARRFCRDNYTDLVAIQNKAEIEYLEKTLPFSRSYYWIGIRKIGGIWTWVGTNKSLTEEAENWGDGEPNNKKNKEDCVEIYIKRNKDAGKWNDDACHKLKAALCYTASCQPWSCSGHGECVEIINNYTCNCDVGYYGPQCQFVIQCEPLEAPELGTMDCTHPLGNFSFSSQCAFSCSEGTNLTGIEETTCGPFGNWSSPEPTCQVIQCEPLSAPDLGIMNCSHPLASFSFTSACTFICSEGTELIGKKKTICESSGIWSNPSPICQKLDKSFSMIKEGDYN
The series can be described thus: filter.

The target in another series is CD22beta (CD22beta-Rg) (UniProt P20273). Nature of the series: filter.
Chain of CD22beta (CD22beta-Rg) (P20273 20-687): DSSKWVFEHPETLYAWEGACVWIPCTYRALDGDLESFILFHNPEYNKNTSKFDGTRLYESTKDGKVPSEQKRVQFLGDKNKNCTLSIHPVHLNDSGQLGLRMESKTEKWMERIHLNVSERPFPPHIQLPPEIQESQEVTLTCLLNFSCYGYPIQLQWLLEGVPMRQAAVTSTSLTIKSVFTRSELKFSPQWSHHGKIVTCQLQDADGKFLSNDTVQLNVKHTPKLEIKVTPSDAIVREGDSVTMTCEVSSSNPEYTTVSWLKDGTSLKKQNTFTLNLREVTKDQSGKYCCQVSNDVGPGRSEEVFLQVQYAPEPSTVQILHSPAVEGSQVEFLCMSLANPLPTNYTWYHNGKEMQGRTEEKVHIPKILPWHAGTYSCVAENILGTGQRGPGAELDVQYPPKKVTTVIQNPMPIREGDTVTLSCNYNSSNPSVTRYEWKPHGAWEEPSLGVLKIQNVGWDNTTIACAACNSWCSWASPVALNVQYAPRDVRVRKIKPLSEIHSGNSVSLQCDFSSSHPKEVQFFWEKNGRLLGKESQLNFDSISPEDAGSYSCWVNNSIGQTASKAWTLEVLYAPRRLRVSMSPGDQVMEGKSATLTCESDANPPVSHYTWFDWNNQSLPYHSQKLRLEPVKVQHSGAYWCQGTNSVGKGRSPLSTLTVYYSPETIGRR
In series [2] the target is T2, E-selectin (ES-Rg) (Homo sapiens) (UniProt P16581).
T2 sequence: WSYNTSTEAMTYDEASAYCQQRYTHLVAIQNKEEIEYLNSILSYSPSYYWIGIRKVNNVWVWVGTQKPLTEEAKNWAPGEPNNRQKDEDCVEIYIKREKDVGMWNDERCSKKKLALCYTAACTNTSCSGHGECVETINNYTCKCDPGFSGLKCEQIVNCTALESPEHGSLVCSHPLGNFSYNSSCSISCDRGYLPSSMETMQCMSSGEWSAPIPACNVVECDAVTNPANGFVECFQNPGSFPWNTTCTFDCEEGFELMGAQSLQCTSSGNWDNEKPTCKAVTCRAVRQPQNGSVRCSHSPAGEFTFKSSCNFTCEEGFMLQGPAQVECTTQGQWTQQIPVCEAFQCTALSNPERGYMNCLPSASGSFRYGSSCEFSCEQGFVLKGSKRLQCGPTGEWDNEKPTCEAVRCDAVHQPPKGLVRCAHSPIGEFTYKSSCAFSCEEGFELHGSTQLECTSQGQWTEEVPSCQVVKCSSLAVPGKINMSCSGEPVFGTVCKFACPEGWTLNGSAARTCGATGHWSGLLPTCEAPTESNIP
Nature of the series: filter.

For series [3], the target named is T3, wheat germ agglutinin (WGA) (Triticum vulgare) (UniProt P10968).
T3 sequence: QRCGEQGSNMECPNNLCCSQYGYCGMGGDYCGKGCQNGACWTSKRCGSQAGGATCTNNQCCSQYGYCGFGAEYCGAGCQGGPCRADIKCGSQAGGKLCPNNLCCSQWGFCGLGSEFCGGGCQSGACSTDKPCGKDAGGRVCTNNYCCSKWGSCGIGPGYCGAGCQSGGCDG
Nature of the series: filter.

The target in series [4] is T4, P-selectin (PS-Rg) (Homo sapiens) (UniProt P16109).
T4 sequence: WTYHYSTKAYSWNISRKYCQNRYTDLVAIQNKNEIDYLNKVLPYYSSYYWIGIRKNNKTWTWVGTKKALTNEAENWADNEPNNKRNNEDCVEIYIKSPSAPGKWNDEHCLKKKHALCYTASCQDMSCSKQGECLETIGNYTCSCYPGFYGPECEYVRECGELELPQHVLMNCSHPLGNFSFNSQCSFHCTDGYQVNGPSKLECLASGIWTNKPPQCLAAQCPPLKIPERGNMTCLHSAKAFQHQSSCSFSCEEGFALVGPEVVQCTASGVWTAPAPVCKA
Nature of the series: filter.

Series [5] has as its system Datura stramonium lectin (Datura stramonium). The series can be described thus: filter. Particulars: 2'-NH2 all C and U.
Series [6] addresses T1, L-selectin (LS-Rg) (Homo sapiens). Nature of the series: inhibition. The note with it: 2'-NH2 all C and U; inhibits LS-Rg binding to immobilized sialyl-Lewis X, room temp, Ca/Mg.
Series [7] concerns the target T5, L-selectin on PBMC (Homo sapiens) (UniProt P14151).
T5 sequence: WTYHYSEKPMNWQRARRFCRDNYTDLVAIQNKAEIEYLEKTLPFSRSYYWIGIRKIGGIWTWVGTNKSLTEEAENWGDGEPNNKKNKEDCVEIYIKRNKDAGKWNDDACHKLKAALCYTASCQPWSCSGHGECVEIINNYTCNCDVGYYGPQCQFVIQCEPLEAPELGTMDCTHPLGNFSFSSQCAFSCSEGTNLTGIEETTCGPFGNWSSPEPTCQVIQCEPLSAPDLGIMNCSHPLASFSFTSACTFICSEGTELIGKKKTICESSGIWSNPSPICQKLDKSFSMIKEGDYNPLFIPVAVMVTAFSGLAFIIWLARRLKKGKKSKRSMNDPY
Particulars: 2'-NH2 all C and U; PBMC binding on ice; competed by DREG-56 anti-L-selectin antibody.

Where [8] appears, read: 2'-NH2 all C and U, HBSS, room temp.
Where [9] appears, read: 2'-NH2 on all C and U, <5% binding at highest protein, 4 C, HSMC.

A value given as a limit tells only on which side of the number the result lay.

Broadly, the Kd is a measure of binding affinity in units of concentration. As usually defined, the IC50 is the concentration that inhibits the measured activity by half.

Take “CTACCTACGATCTGACTAGCCGAGGATCTGATACTTATTGAACATAMCCGCACNCAGGCTTGCTTACTCTCATGTAGTTCC [102]”: the Kd in series [1] (37 C, room temp not determined) was 7.9 nM. For the sequence “CTACCTACGATCTGACTAGCCGAGGTAGTCGTTATAGGGTRCRCACGACACAAARCRGTRGCTTACTCTCATGTAGTTCC [127]”, the Kd in series [1] (room temp, 890 pM at 37 C) was 1 nM; with CD22beta (CD22beta-Rg) (<1% binding at 700 nM, room temp), greater than 100 µM; in series [2] (room temp, Ca/Mg buffer), 1.3 µM; in series [3] (<3% binding at 1.4 µM, room temp), greater than 100 µM; in series [4] (room temp, Ca/Mg buffer) it was 0.78 µM. Turning to “CTACCTACGATCTGACTAGCNNNNNNNNNNNNNNNNNNNNNNNNNNNNNNNNNNNNNNNNGCTTACTCTCATGTAGTTCC [random 40BH ssDNA pool]”, the Kd in series [1] (estimate for random ssDNA) is 10000 nM. In the case of “GGGAAAAGCGAAUCAUACACAAGAAAGGGAUGGGAUUGGGACGAGCGGCCAAGACUCGGCGGGAACGAAGGGUCCGCUCCGCCAGAGACCAACCGAGAA [6.8]”, in series [5] (<5% bound at 1 uM protein), the Kd is greater than 20 µM.

“GGGAAAAGCGAAUCAUACACAAGACAGCGGCGGAGUCAGUGAAAGCGUGGGGGGYGCGGGAGGUCUACCCUGACGCUCCGCCAGAGACCAACCGAGAA [6.14]” gave a Kd in series [3] (2'-NH2 all C and U, <5% bound at 1 uM WGA) greater than 20 µM. In the case of “GGGAAAAGCGAAUCAUACACAAGACGGCUGUGUGGUGUUGGAGCGUCAUAGUAGGAGUCGUCACGAACCAAGGCGCUCCGCCAGAGACCAACCGAGAA [11.24]”, the Kd in series [5] (<5% bound at 1 uM protein) is greater than 20 µM. “GGGAAAAGCGAAUCAUACACAAGACUGGCAAGRAGUGCGUGAGGGUACGUUAGGGGUGUUUGGGCCGAUCGCAUGCUCCGCCAGAGACCAACCGAGAA [11.7]” yielded a Kd in series [3] (setting [8]) of 0.016 µM. On to “GGGAAAAGCGAAUCAUACACAAGAGAGGUGRAUGGGAGAGUGGAGCCCGGGUGACUCGAGGAUUCCCGUGCUCCGCCAGAGACCAACCGAGAA [11.3]”, for which the Kd in series [3] (setting [8]) turned out to be 0.41 µM.

For the sequence “GGGAAAAGCGAAUCAUACACAAGAGUAGGAGGUUCCAUCACCAGGACUCGGCGGGAACGGAAGGUGAUGSGCUCCGCCAGAGACCAACCGAGAA [11.35]”, in series [3] (setting [8]), the Kd was determined as 0.09 µM. Sequence “GGGAAAAGCGAAUCAUACACAAGANNNNNNNNNNNNNNNNNNNNNNNNNNNNNNNNNNNNNNNNNNNNNNNNNNGCUCCGCCAGAGACCAACCGAGAA [random 50N9 RNA pool]” showed a Kd in series [3] (2'-NH2 all C and U, no binding at 36 uM WGA monomer) greater than 4000 µM. In turn, “GGGAAAAGCGAAUCAUACACAAGAUUGGUCGUACUGGACAGAGCCGUGGUAGAGGGAUUGGGACAAAGUGUCAGCUCCGCCAGAGACCAACCGAGAA [11.20]” returned a Kd in series [5] (HBSS, room temp) of 11.2 µM.

With “GGGAGGACGAUGCGGAAGUGAAGCUAAAGCGGAGGGCCAUUCAGUUUCNCACCACAGACGACUCGCCCGA [F14.2]”, the Kd in series [1] (2'-NH2 all C and U, 4 C, HSMC, 7.2 nM at room temp) was 1.8 nM; with CD22beta (CD22beta-Rg) (setting [9]) it was greater than 20 µM; in series [2] (2'-NH2 all C and U, 4 C, HSMC), 1.9 µM; in series [4] (2'-NH2 all C and U, 4 C, HSMC) it was 0.45 µM.

In series [1] (2'-NH2 all C and U, 4 C, HSMC, biphasic, fraction 0.74, low affinity Kd 270 nM), “GGGAGGACGAUGCGGAAGUGAAGCUAAAGSGGAGGGCCACUCAGAAACGCACCACAGACGACUCGCCCGA [F14.13]” yielded a Kd of 1.3 nM. “GGGAGGACGAUGCGGCCGUACAUGGUAARCCUCGAAGGAUUCCCGGGAUGAUCCCCAGACGACUCGCCCGA [F14.27]” showed a Kd in series [1] (2'-NH2 all C and U, 4 C, HSMC) of 145 nM. Take “GGGAGGACGAUGCGGNNNNNNNNNNNNNNNNNNNNNNNNNNNNNNNNNNNNNNNNCAGACGACUCGCCCGA [random 40N7 RNA pool]”: the Kd in series [1] (2'-NH2 all C and U, estimate for random RNA) is 10000 nM.

Turning to “GGGAGGACGAUGCGGUAACAACAAUCAAGGCGGGUUYACCGCCCCAGUAUGAGUACAGACGACUCGCCCGA [F14.12]”, the IC50 in series [6] stood at 0.01 µM. Moreover, the Kd was 0.06 nM in series [1] (2'-NH2 all C and U, 4 C, HSMC, Table IX prints 5.8 pM (fraction 0.68, low affinity Kd 16.2 nM), 1.7 nM at room temp); greater than 20 µM with CD22beta (CD22beta-Rg) (2'-NH2 all C and U, <5% bound at up to 660 nM, 4 C); 0.047 µM in series [2] (2'-NH2 all C and U, 4 C, HSMC); 0.91 µM in series [4] (2'-NH2 all C and U, 4 C, HSMC); 0.0013 µM in series [7].

On to “GGGAGGACGAUGCGGUCCAGAGCGUGAAGAUCAACGUCCCGGNGUCGAAGACAGACGACUCGCCCGA [F14.70]”, for which the Kd in series [1] (2'-NH2 all C and U, 4 C, HSMC, biphasic, fraction 0.75, low affinity Kd 254 nM, 7.8 nM at room temp) was 2 nM; with CD22beta (CD22beta-Rg) (setting [9]) it was greater than 20 µM; in series [2] (2'-NH2 all C and U, 4 C, HSMC), 5.9 µM.
